Assay results: article PMC5802837, “Lymphocyte-specific protein 1 regulates mechanosensory oscillation of podosomes and actin isoform-based actomyosin symmetry breaking” (Nature Communications, 2018)

How the values were obtained:
Assay in all cases: co-IP; anti-GFP immunoprecipitation (µMACS anti-GFP Microbeads) from lysates of macrophages expressing GFP-fused constructs (500 mM NaCl, 2% Triton X-100, 50 mM Tris-HCl pH 8.0), washes with RIPA and high-salt RIPA; GFP alone as control; western blot of endogenous partners, densitometry
[1] = molecular target: supervillin construct SV1-830-GFP (UniProt O46385)
[2] = molecular target: GFP-fused full length LSP1 (human) (UniProt P33241)
[3] = molecular target: T1, supervillin construct SV1-830-GFP (UniProt O46385-2 1-830); details: partners not purified
T1 construct: supervillin, N-terminal region, residues 1-830; as far as recalled the Luna laboratory constructs are bovine supervillin; also called GFP-SV1-830; GFP-supervillin 1-830; source: primary human macrophages, transfected, in lysate

“Ser19 phosphorylated myosin light chain (pMLC), endogenous (from UniProt P24844 1-172) (natural protein)” showed a coprecipitated amount relative to LSP1-GFP [1] of 9 fold.

For “α-cardiac actin, endogenous (from UniProt P68032 1-377) (natural protein)”, the coprecipitated α-cardiac actin relative to SV1-830-GFP [2] was 0.33 fold.

B1: myosin IIA, endogenous (natural protein, UniProt P35579 1-1960, looked up)
chain: MAQQAADKYLYVDKNFINNPLAQADWAAKKLVWVPSDKSGFEPASLKEEVGEEAIVELVENGKKVKVNKDDIQKMNPPKFSKVEDMAELTCLNEASVLHNLKERYYSGLIYTYSGLFCVVINPYKNLPIYSEEIVEMYKGKKRHEMPPHIYAITDTAYRSMMQDREDQSILCTGESGAGKTENTKKVIQYLAYVASSHKSKKDQGELERQLLQANPILEAFGNAKTVKNDNSSRFGKFIRINFDVNGYIVGANIETYLLEKSRAIRQAKEERTFHIFYYLLSGAGEHLKTDLLLEPYNKYRFLSNGHVTIPGQQDKDMFQETMEAMRIMGIPEEEQMGLLRVISGVLQLGNIVFKKERNTDQASMPDNTAAQKVSHLLGINVTDFTRGILTPRIKVGRDYVQKAQTKEQADFAIEALAKATYERMFRWLVLRINKALDKTKRQGASFIGILDIAGFEIFDLNSFEQLCINYTNEKLQQLFNHTMFILEQEEYQREGIEWNFIDFGLDLQPCIDLIEKPAGPPGILALLDEECWFPKATDKSFVEKVMQEQGTHPKFQKPKQLKDKADFCIIHYAGKVDYKADEWLMKNMDPLNDNIATLLHQSSDKFVSELWKDVDRIIGLDQVAGMSETALPGAFKTRKGMFRTVGQLYKEQLAKLMATLRNTNPNFVRCIIPNHEKKAGKLDPHLVLDQLRCNGVLEGIRICRQGFPNRVVFQEFRQRYEILTPNSIPKGFMDGKQACVLMIKALELDSNLYRIGQSKVFFRAGVLAHLEEERDLKITDVIIGFQACCRGYLARKAFAKRQQQLTAMKVLQRNCAAYLKLRNWQWWRLFTKVKPLLQVSRQEEEMMAKEEELVKVREKQLAAENRLTEMETLQSQLMAEKLQLQEQLQAETELCAEAEELRARLTAKKQELEEICHDLEARVEEEEERCQHLQAEKKKMQQNIQELEEQLEEEESARQKLQLEKVTTEAKLKKLEEEQIILEDQNCKLAKEKKLLEDRIAEFTTNLTEEEEKSKSLAKLKNKHEAMITDLEERLRREEKQRQELEKTRRKLEGDSTDLSDQIAELQAQIAELKMQLAKKEEELQAALARVEEEAAQKNMALKKIRELESQISELQEDLESERASRNKAEKQKRDLGEELEALKTELEDTLDSTAAQQELRSKREQEVNILKKTLEEEAKTHEAQIQEMRQKHSQAVEELAEQLEQTKRVKANLEKAKQTLENERGELANEVKVLLQGKGDSEHKRKKVEAQLQELQVKFNEGERVRTELADKVTKLQVELDNVTGLLSQSDSKSSKLTKDFSALESQLQDTQELLQEENRQKLSLSTKLKQVEDEKNSFREQLEEEEEAKHNLEKQIATLHAQVADMKKKMEDSVGCLETAEEVKRKLQKDLEGLSQRHEEKVAAYDKLEKTKTRLQQELDDLLVDLDHQRQSACNLEKKQKKFDQLLAEEKTISAKYAEERDRAEAEAREKETKALSLARALEEAMEQKAELERLNKQFRTEMEDLMSSKDDVGKSVHELEKSKRALEQQVEEMKTQLEELEDELQATEDAKLRLEVNLQAMKAQFERDLQGRDEQSEEKKKQLVRQVREMEAELEDERKQRSMAVAARKKLEMDLKDLEAHIDSANKNRDEAIKQLRKLQAQMKDCMRELDDTRASREEILAQAKENEKKLKSMEAEMIQLQEELAAAERAKRQAQQERDELADEIANSSGKGALALEEKRRLEARIAQLEEELEEEQGNTELINDRLKKANLQIDQINTDLNLERSHAQKNENARQQLERQNKELKVKLQEMEGTVKSKYKASITALEAKIAQLEEQLDNETKERQAACKQVRRTEKKLKDVLLQVDDERRNAEQYKDQADKASTRLKQLKRQLEEAEEEAQRANASRRKLQRELEDATETADAMNREVSSLKNKLRRGDLPFVVPRRMARKGAGDGSDEEVDGKADGAEAKPAE
notes: non-muscle myosin IIA heavy chain, human, precipitated and detected with anti-myosin IIA antibodies; also called non-muscle myosin IIA; source: endogenous, primary human macrophages (lysate or fixed cells)
B1 was tested, and the “coprecipitated amount relative to LSP1-GFP” value [3] was 1.6 fold.
